Assay results taken from PMC8876998.
Values joined by “and” are separate entries in the source; they are usually repeats but may differ in a detail not shown here. Identical values can stand only once.

Legend:
[1] = biological target: Getah virus capsid protein (Getah virus (GETV), strain SC483); assay: cryo-EM structure
[2] = biological target: Getah virus envelope glycoprotein E2 (Getah virus (GETV), strain SC483); assay: cryo-EM structure

Row | Substance | stoichiometry N [1] | stoichiometry N [2]
1 | Getah virus capsid protein (natural protein) | 6 and 5 | –
2 | Getah virus envelope glycoprotein E2 (natural protein) | – | 3
